# Measured values: patent publication US20180155451A1 (published 2018)
# T1: FcγRIIa R (human FcγRIIa, allotype R, Arg at position 131), extracellular domain with C-terminal His tag (human, UniProt P12318 34-217)
# T1 construct: extracellular domain; expressed in FreeStyle293 cells; analyte in Biacore; also called 2aR; FcgRIIa R
# T1 sequence (looked up): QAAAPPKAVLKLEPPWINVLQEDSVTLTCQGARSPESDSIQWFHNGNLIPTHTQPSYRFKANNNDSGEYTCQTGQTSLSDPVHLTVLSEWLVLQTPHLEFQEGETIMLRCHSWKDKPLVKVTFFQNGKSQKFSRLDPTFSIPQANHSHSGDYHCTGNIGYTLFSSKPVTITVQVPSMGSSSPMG
# B1: GpH7-A5/GpH7-B3 variant S337_02A/GpL16-k0 (antibody, human IgG1, kappa)
# heavy 1: not shown
# heavy 2: not shown
# light: DIVMTQSPLSLPVTPGEPASISCQASESLVHSNRNTYLHWYLQKPGQSPQLLIYKVSNRFSGVPDRFSGSGSGTDFTLKISRVEAEDVGVYYCSQNTHVPPTFGQGTKVEIERTVAAPSVFIFPPSDEQLKSGTASVVCLLNNFYPREAKVQWKVDNALQSGNSQESVTEQDSKDSTYSLSSTLTLSKADYEKHKVYACEVTHQGLSSPVTKSFNRGEC
# notes: heterodimerized antibody, mutation in one H chain only; also called He Ab
# B2: GpH7-A5/GpH7-B3 variant S324_04F/GpL16-k0 (antibody, human IgG1, kappa)
# heavy 1: not shown
# heavy 2: not shown
# light: B1 light
# notes: as for B1
# B3: GpH7-A5/GpH7-B3 variant S298_08L/GpL16-k0 (antibody, human IgG1, kappa)
# heavy 1: not shown
# heavy 2: not shown
# light: B1 light
# notes: as for B1
# B4: GpH7-A5/GpH7-B3 variant P271_09D/GpL16-k0 (antibody, human IgG1, kappa)
# heavy 1: not shown
# heavy 2: not shown
# light: B1 light
# notes: as for B1
# B5: GpH7-A5/GpH7-B3 variant S267_19Q/GpL16-k0 (antibody, human IgG1, kappa)
# heavy 1: not shown
# heavy 2: not shown
# light: B1 light
# notes: as for B1
# B6: GpH7-A5/GpH7-B3 variant P271_10E/GpL16-k0 (antibody, human IgG1, kappa)
# heavy 1: not shown
# heavy 2: not shown
# light: B1 light
# notes: as for B1
# B7: GpH7-A5/GpH7-B3 variant S298_06M/GpL16-k0 (antibody, human IgG1, kappa)
# heavy 1: not shown
# heavy 2: not shown
# light: B1 light
# notes: as for B1
# B8: GpH7-A5/GpH7-B3 variant P238_15Y/GpL16-k0 (antibody, human IgG1, kappa)
# heavy 1: not shown
# heavy 2: not shown
# light: B1 light
# notes: as for B1
# B9: GpH7-A5/GpH7-B3 variant P238_19Q/GpL16-k0 (antibody, human IgG1, kappa)
# heavy 1: not shown
# heavy 2: not shown
# light: B1 light
# notes: as for B1
# B10: GpH7-A5/GpH7-B3 variant S267_09D/GpL16-k0 (antibody, human IgG1, kappa)
# heavy 1: not shown
# heavy 2: not shown
# light: B1 light
# notes: as for B1
# B11: GpH7-A5/GpH7-B3 variant P238_20W/GpL16-k0 (antibody, human IgG1, kappa)
# heavy 1: not shown
# heavy 2: not shown
# light: B1 light
# notes: as for B1
# B12: GpH7-A5/GpH7-B3 variant S267_06M/GpL16-k0 (antibody, human IgG1, kappa)
# heavy 1: not shown
# heavy 2: not shown
# light: B1 light
# notes: as for B1
# B13: GpH7-A5/GpH7-B3 variant S324_06M/GpL16-k0 (antibody, human IgG1, kappa)
# heavy 1: not shown
# heavy 2: not shown
# light: B1 light
# notes: as for B1
# B14: GpH7-A5/GpH7-B3 variant P238_10E/GpL16-k0 (antibody, human IgG1, kappa)
# heavy 1: not shown
# heavy 2: not shown
# light: B1 light
# notes: as for B1
# B15: GpH7-A5/GpH7-B3 variant P238_16H/GpL16-k0 (antibody, human IgG1, kappa)
# heavy 1: not shown
# heavy 2: not shown
# light: B1 light
# notes: as for B1
# B16: GpH7-A5/GpH7-B3 variant P331_03V/GpL16-k0 (antibody, human IgG1, kappa)
# heavy 1: not shown
# heavy 2: not shown
# light: B1 light
# notes: as for B1
# Target: T1, FcγRIIa R (human FcγRIIa, allotype R, …)
# Assay: SPR (Biacore), relative binding vs GpH7-A5/GpH7-B3/GpL16-k0
row,He/Con_2aR,Binder
1,"105 relative, control = 100",B1
2,"104 relative, control = 100",B2
3,"105 relative, control = 100",B3
4,"110 relative, control = 100",B4
5,"135 relative, control = 100",B5
6,"103 relative, control = 100",B6
7,"108 relative, control = 100",B7
8,"156 relative, control = 100",B8
9,"104 relative, control = 100",B9
10,"173 relative, control = 100",B10
11,"117 relative, control = 100",B11
12,"122 relative, control = 100",B12
13,"123 relative, control = 100",B13
14,"151 relative, control = 100",B14
15,"122 relative, control = 100",B15
16,"114 relative, control = 100",B16
